# Experimental data reported in patent US4446316A, “Dextran derivative of fibrinolysin” (Vsesojuzny Kardiologichesky Nauchny Tsentr, priority 1980, dated 1984).
# “Also recorded” adds a separate entry of the source.
# B1: Fibrinolysin: native enzyme; thrombolytic preparation administered intravenously (protein, UniProt P00747 20-580; P00747 581-810, looked up)
# Plasmin heavy chain A: EPLDDYVNTQGASLFSVTKKQLGAGSIEECAAKCEEDEEFTCRAFQYHSKEQQCVIMAENRKSSIIIRMRDVVLFEKKVYLSECKTGNGKNYRGTMSKTKNGITCQKWSSTSPHRPRFSPATHPSEGLEENYCRNPDNDPQGPWCYTTDPEKRYDYCDILECEEECMHCSGENYDGKISKTMSGLECQAWDSQSPHAHGYIPSKFPNKNLKKNYCRNPDRELRPWCFTTDPNKRWELCDIPRCTTPPPSSGPTYQCLKGTGENYRGNVAVTVSGHTCQHWSAQTPHTHNRTPENFPCKNLDENYCRNPDGKRAPWCHTTNSQVRWEYCKIPSCDSSPVSTEQLAPTAPPELTPVVQDCYHGDGQSYRGTSSTTTTGKKCQSWSSMTPHRHQKTPENYPNAGLTMNYCRNPDADKGPWCFTTDPSVRWEYCNLKKCSGTEASVVAPPPVVLLPDVETPSEEDCMFGNGKGYRGKRATTVTGTPCQDWAAQEPHRHSIFTPETNPRAGLEKNYCRNPDGDVGGPWCYTTNPRKLYDYCDVPQCAAPSFDCGKPQVEPKKCPGR
# Plasmin light chain B: VVGGCVAHPHSWPWQVSLRTRFGMHFCGGTLISPEWVLTAAHCLEKSPRPSSYKVILGAHQEVNLEPHVQEIEVSRLFLEPTRKDIALLKLSSPAVITDKVIPACLPSPNYVVADRTECFITGWGETQGTFGAGLLKEAQLPVIENKVCNRYEFLNGRVQSTELCAGHLAGGTDSCQGDSGGPLVCFEKDKYILQGVTSWGLGCARPNKPGVYVRVSRFVTWIEGVMRNN
# modifications: Plasmin
# notes: native enzyme; thrombolytic preparation administered intravenously
# B2: 1: polysaccharide derivative of fibrinolysin from oxidized polyglucin with the molecular mass of 20,000, reduced with sodium borohydride (conjugate, UniProt P00747 20-580; P00747 581-810, looked up)
# Plasmin heavy chain A: B1 Plasmin heavy chain A
# Plasmin light chain B: B1 Plasmin light chain B
# modifications: plasmin conjugated to oxidized polyglucin, borohydride-reduced
# notes: polysaccharide derivative of fibrinolysin from oxidized polyglucin with the molecular mass of 20,000, reduced with sodium borohydride
# B3: 2: polysaccharide derivative of fibrinolysin from oxidized polyglucin with the molecular mass of 110,000 and the oxidation degree of 20±2% (conjugate, UniProt P00747 20-580; P00747 581-810, looked up)
# Plasmin heavy chain A: B1 Plasmin heavy chain A
# Plasmin light chain B: B1 Plasmin light chain B
# modifications: plasmin conjugated to oxidized polyglucin
# Legend:
# blood coagulation = assay: Blood coagulation and bleeding during therapy of experimental thrombosis; type: in vivo, rabbit
# Description: (§1) The study of the specific (thrombolytic) effect of the polysaccharide fibrinolysin derivative according to the present invention has been studied on models of thromboses of a rabbit's jugular vein and a dog's femoral vein or artery. Thrombi of 1 to 2.5 cm size were formed in the above-mentioned animals which fully obliterated the cross-section of a blood vessel. The administration of the test preparation at the background of heparin was started one hour after the thrombus formation.
# (§2) On the basis of an expected prolonged fibrinolytic effect of the preparation according to the present invention, a test dose of the preparation ranging from 400 to 4,000 units per kg of the bodyweight is dissolved in a physiological solution, 20-30 ml for rabbits and 50-100 ml for dogs, and injected by means of a syringe in a jet-like manner intravenously over 20 minutes, not following the instruction on the use of fibrinolysin (intravenously by the dropwise method at a rate of 10-12 drops per minute).
# (§3) The dynamics of the thrombus formation and lysis was observed visually and by palpation during 6 hours of the experiment, after one, two and three days. The angiography and fluorometry were carried out prior to the beginning of the treatment and one day after the administration of the preparation.
# [1] = system: euglobulin fraction of dog's plasma; assay: Lysis duration of the euglobulin fraction of dog's plasma with experimental thrombosis; type: in vivo
# Description: (§4) The prolonged effect of the fibrinolysin derivative according to the present invention has been studied in experiments on dogs in comparison with the effect of native fibrinolysin.
# Variation of lysis duration (in minutes) of the euglobulin
# fraction of dog's plasma with experimental thrombosis upon
# administration of the fibrinolysin derivative according to
# the present invention and native fibrinolysin
# [2] = system: thromboses of a rabbit's jugular vein; assay: Thrombolytic activity on model of thrombosis of rabbit's jugular vein (lysis of thrombus); type: in vivo
# Description: as §1, §2, §3
# [3] = system: thromboses of a dog's femoral vein or artery; assay: Thrombolytic activity on model of thrombosis of dog's femoral vein (lysis of thrombus); type: in vivo; details: dogs, n=1
# Description: as §1, §2, §3
# experimental thrombosis = assay: Duration of fibrinolytic effect and effective dose in experimental thrombosis; type: in vivo, rabbits, dogs
# Description: as §1, §2, §3
# thrombin time = assay: Thrombin time in dogs with experimental thrombosis; type: in vivo, dog
# Description: as §4
# Variation of thrombin time (in seconds) in dogs with expe-
# rimental thrombosis after administration of the fibrinolysin
# derivative according to the present invention and native
# [4] = Solubility and hygroscopicity of the preparation; type: physicochemical; details: for Solubility in 0.9% isotonic solution of sodium chloride: 0.9% sodium chloride; for Hygroscopicity: lyophilized powder
# [5] = Fibrinolytic activity of the preparation; type: biochemical; details: for Specific (fibrinolytic) activity: lyophilized preparation; for Total activity relative to the initial value: of the initial value
# [6] = before administration (baseline)
molecule,measurement,setting,value
B1,Bleeding,blood coagulation; during treatment,bleeding
same,Changes in the third phase of blood coagulation,blood coagulation; during treatment,pathological changes in the third phase of blood coagulation
same,Content of fibrinogen,blood coagulation; first hours after administration,down to zero
same,Lysis duration of the euglobulin fraction,[1]; after 2 hours,3 min
same,Lysis duration of the euglobulin fraction,[1]; after 1 day,105 min
same,Lysis duration of the euglobulin fraction,[1]; after 2 days,90 min
same,"Lysis duration of the euglobulin fraction, initial parameter",[1]; [6],38 min
same,Efficiency of the therapy (lysis of thrombus),"[2]; rabbits, 600 units/kg i.v.",no lysis
same,Efficiency of the therapy (lysis of thrombus),"[2]; rabbits, 800 units/kg i.v. (Table 1: 2 animals full lysis, 1 animal no lysis)",full lysis; also recorded: no lysis
same,Efficiency of the therapy (lysis of thrombus),"[2]; rabbits, 800 units/kg i.v. (Table 1: 2 animals full lysis, 1 animal no lysis), listed as fibrinolysin",no thrombolytic effect in all cases
same,Efficiency of the therapy (lysis of thrombus),"[2]; rabbits, 1,200 units/kg i.v.",full lysis
same,Efficiency of the therapy (lysis of thrombus),"[2]; rabbits, 2,000 units/kg i.v.",full lysis
same,Death of animals,"[2]; rabbits, 4,000 units/kg i.v.",death of animals
same,Efficiency of the therapy (lysis of thrombus),"[2]; rabbits, 4,000 units/kg i.v.",full lysis
same,Efficiency of the therapy (lysis of thrombus),"[3]; femoral vein, 800 units/kg i.v.",no lysis
same,Efficiency of the therapy (lysis of thrombus),"[3]; femoral vein, 1,600 units/kg i.v.",full lysis
same,Lysis of a thrombus at the minimal therapeutic dose,experimental thrombosis; 800 units/kg of the bodyweight,does not always cause the lysis of a thrombus
same,Duration of the fibrinolytic effect,experimental thrombosis; after administration,limited to one day
same,Minimal effective (therapeutical) dose,experimental thrombosis; single intravenous jet-like infusion,800 units/kg
same,Thrombin time,thrombin time; after 2 hours,195 s
same,Thrombin time,thrombin time; after 1 day,95 s
same,Thrombin time,thrombin time; after 2 days,97 s
same,"Thrombin time, initial parameter",thrombin time; [6],22 s
B2,Solubility in 0.9% isotonic solution of sodium chloride,[4],soluble
same,Solubility in 95% ethanol,[4],substantially insoluble
same,Solubility in chloroform,[4],substantially insoluble
same,Solubility in ether,[4],substantially insoluble
same,Hygroscopicity,[4],hygroscopic
same,Solubility in water,[4],soluble
same,Specific (fibrinolytic) activity,[5],21.2 units/mg
same,Total activity relative to the initial value,[5],31.0%
same,Total activity,[5]; whole batch,48200 units
B3,Solubility in 0.9% isotonic solution of sodium chloride,[4],readily soluble
same,Solubility in 95% ethanol,[4],substantially insoluble
same,Solubility in chloroform,[4],substantially insoluble
same,Solubility in ether,[4],substantially insoluble
same,Hygroscopicity,[4],hygroscopic
same,Solubility in water,[4],readily soluble
same,Specific (fibrinolytic) activity,[5],24 units/mg
same,Total activity relative to the initial value,[5],30%
